In experiment [1] the target is recombinant human mis-disordered tau protein (tau151-391/4R) (human) (UniProt P10636). The experiment in a line: reference line in the plot 'Affinity against pathological tau', axis KD (nM); SPR (Example 10).
The next experiment has as its target Human Tau2N4R. Nature of the experiment: SPR; literature table, Jadhav et al. 2019; AFFINITY 'nd.'.

Human Tau2N4R, sequence (single chain, as listed by the source limits assumed): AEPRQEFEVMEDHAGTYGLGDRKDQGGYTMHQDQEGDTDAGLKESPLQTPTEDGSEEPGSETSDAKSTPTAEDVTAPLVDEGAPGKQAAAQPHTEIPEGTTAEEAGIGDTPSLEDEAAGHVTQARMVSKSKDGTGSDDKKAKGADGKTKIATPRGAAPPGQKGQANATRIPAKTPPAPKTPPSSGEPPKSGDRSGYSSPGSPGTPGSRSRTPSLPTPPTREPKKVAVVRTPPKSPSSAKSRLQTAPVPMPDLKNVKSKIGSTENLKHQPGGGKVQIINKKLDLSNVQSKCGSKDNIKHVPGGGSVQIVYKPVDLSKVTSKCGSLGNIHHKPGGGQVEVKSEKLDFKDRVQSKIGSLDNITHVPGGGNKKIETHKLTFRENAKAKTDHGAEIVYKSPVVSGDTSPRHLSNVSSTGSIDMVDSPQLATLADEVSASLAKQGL
recombinant human mis-disordered tau protein (tau151-391/4R) (human), sequence (P10636 468-708): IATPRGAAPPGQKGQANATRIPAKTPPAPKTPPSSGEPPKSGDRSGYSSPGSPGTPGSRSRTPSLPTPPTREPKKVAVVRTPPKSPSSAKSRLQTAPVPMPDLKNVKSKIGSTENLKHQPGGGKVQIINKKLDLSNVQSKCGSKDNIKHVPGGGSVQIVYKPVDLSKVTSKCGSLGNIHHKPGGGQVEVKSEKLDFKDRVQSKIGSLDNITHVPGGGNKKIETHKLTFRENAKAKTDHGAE

A word on the Kd: it is the concentration at which binding is half-saturated. For the substance AADvac2, the Kd in experiment [1] amounted to 0.4 nM.

The substance HJ8.5 (antibody) displayed an AVIDITY with Human Tau2N4R of 0.4 pM.

For the substance HJ9.3 (antibody), the AVIDITY with Human Tau2N4R is 100 pM.

As to HJ9.4 (antibody), the AVIDITY with Human Tau2N4R is 7000 pM.

Source of the values: patent US20220402979A1.
